# B1: Gal-3C: N-terminally truncated human galectin-3 consisting of 143 carboxy-terminal amino acid residues, SEQ ID NO: 1 (protein)
# chain: GAPAGPLIVPYNLPLPGGVVPRMLITILGTVKPNANRIALDFQRGNDVAFHFNPRFNENNRRVIVCNTKLDNNWGREERQSVFPFESGKPFKIQVLVEPDHFKVAVNDAHLLQYNHRVKKLNEISKLGISGDIDITSASYTMI
# System: U266 MM cells
# Test: Chemotaxis of U266 cells toward SDF-1α in transwell chambers
# Format: cell-based, human
# Settings: Gal-3C at 2.0 μg/ml; SDF-1α 100 ng/ml; 4 hours
# Experimental: Chemotaxis of U266 Cells. U266 cells (400×10^3/well) were plated in 100-μl cell culture media with and without Gal-3C (0, 0.4, 2.0, 10, and 20 μg/ml) in the top chambers of 24-well transwell inserts with 8-μm pores. Cell culture media (600 μ ? ) containing the B-cell chemoattractant stromal cell-derived factor (SDF)-1 ? (100 ng/ml; R&D Systems, Minneapolis, Minn., USA) was added to the bottom chamber. After 4 hours, the number of U266 cells in the bottom chamber was counted with a FACScan flow cytometer (flux rate on high, a 2 min acquisition gate, and 200 μs resolution).
# FIG. 2 is a graph of Gal-3C inhibits the chemotaxis of U266 MM cells Gal-3C (0.4, 2, 10, or 20 μg/ml) in bicameral chambers in response to stromal cell-derived factor (SDF)-1α (100 ng/ml). Error bars are ±S.D. and sextuplicate data points are represented (ANOVA with Turkey test P<0.001 for all comparisons to controls). […] Gal-3C at 2.0 μg/m1 inhibited more than 60% of the U266 cell chemotaxis stimulated by the chemokine, SDF-1α. The SDF-1α and its receptor, CXCR4, are regulators of the migration and homing of MM cells to the bone marrow, and possibly may also control egression of MM cells out of the bone marrow (76).
molecule,measurement,value
B1,inhibition of U266 cell chemotaxis stimulated by SDF-1α,more than 60%

# Source: patent publication US9744212B2, “Galectin-3C combination therapy for human cancer” (Texas Tech University System, priority 2011, dated 2017)
